# B1: HMOX1 (parent)
# chain: YHIYVALEEEIERNKESPVFAPVY
# Variants of: B1
# Test: protein stability index of a GFP-peptide fusion (GPS, HEK-293T) (PSI 1-6); higher = more stable
# Conditions: c terminus: a fixed tail appended
# 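Note: lentivirally expressed fusions sorted by FACS into six bins by GFP to DsRed ratio, PSI derived from sequencing read proportions per bin multiplied by bin number.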
row,Variant,protein stability index
1,YHIYVALEEEIERNKESPVFANVY [P22N],1.68
2,YHIYVALEEEIERNKESPVFAVVY [P22V],3.15
3,YHIYVALEEEIERNKESPVFAGVY [P22G],1.76
4,YHIYVALEEEIERNKESPVFAYVY [P22Y],1.77
5,YHIYVALEEEIERNKESPVFAEVY [P22E],2.52
6,YHIYVALEEEIERNKESPVFATVY [P22T],2.1
7,YHIYVALEEEIERNSESPVFAPVY [K15S],1.98
8,YHIYVALEEEIERNHESPVFAPVY [K15H],1.42
9,YHIYVALEEEIERNYESPVFAPVY [K15Y],2.13
10,YHIYVALEEEIERNRESPVFAPVY [K15R],1.38
11,YHIYVALEEEIERNPESPVFAPVY [K15P],1.53
12,YHIYVALEEEIERNIESPVFAPVY [K15I],1.87
13,YHIYVALEEEIERNWESPVFAPVY [K15W],2.21
14,YHIYVALEEEIERNCESPVFAPVY [K15C],2.2
15,YHIYVALEEEIERNFESPVFAPVY [K15F],2.13
16,YHIYVALEEEIERNDESPVFAPVY [K15D],1.57
17,YHIYVALEEEIERNAESPVFAPVY [K15A],2.92
18,YHIYVALEEEIERNQESPVFAPVY [K15Q],2.59
19,YHIYVALEEEIERNGESPVFAPVY [K15G],1.9
20,YHIYVALEEEIERNVESPVFAPVY [K15V],1.83
21,YHIYVALEEEIERNTESPVFAPVY [K15T],1.36
22,YHIYVALEEEIERNNESPVFAPVY [K15N],1.7
23,YHIYVALEEEIERNLESPVFAPVY [K15L],2.22
24,YHIYVALEEEIERNEESPVFAPVY [K15E],1.37

row,Variant,protein stability index
1,YHIYVALEEEIERNKESPVFAPVD [Y24D],3.35
2,YHIYVALEEEIERNKESPVFAPVP [Y24P],3.47
3,YHIYVALEEEIERNKESPVFAPVK [Y24K],2.69
4,YHIYVALEEEIERNKESPVFAPVM [Y24M],2.22
5,YHIYVALEEEIERNKESPVFAPVN [Y24N],2.9
6,YHIYVALEEEIERNKESPVFAPVC [Y24C],2.23
7,YHIYVALEEEIERNKESPVFAPVG [Y24G],2.83
8,YHIYVALEEEIERNKESPVFAPVI [Y24I],2.49
9,YHIYVALEEEIERNKESPVFAPVA [Y24A],3.11
10,YHIYVALEEEIERNKESPVFAPVE [Y24E],3.33
11,YHIYVALEEEIERNKESPVFAPVF [Y24F],1.78
12,YHIYVALEEEIERNKESPVFAPVL [Y24L],2.31
13,YHIYVALEEEIERNKESPVFAPVH [Y24H],2.48
14,YHIYVALEEEIERNKESPWFAPVY [V19W],1.57
15,YHIYVALEEEIERNKESPQFAPVY [V19Q],2.14
16,YHIYVALEEEIERNKESPLFAPVY [V19L],1.7
17,YHIYVALEEEIERNKESPNFAPVY [V19N],2.69
18,YHIYVALEEEIERNKESPYFAPVY [V19Y],1.46
19,YHIYVALEEEIERNKESPPFAPVY [V19P],2.35
20,YHIYVALEEEIERNKESPTFAPVY [V19T],2.32
21,YHIYVALEEEIERNKESPSFAPVY [V19S],2.15
22,YHIYVALEEEIERNKESPHFAPVY [V19H],2.13
23,YHIYVALEEEIERNKESPIFAPVY [V19I],1.72
24,YHIYVALEEEIERNKESPDFAPVY [V19D],2.7

row,Variant,protein stability index
1,YHIYVALEEEIERNKESPAFAPVY [V19A],2.3
2,YHIYVALEEEIERNKESPKFAPVY [V19K],1.99
3,YHIYVALEEEIERNKESPEFAPVY [V19E],2.93
4,YHIYVALEEEIERNKESPFFAPVY [V19F],1.84
5,YHIYVALEEEIERNKESPGFAPVY [V19G],2.37
6,YHIYVALEEEIERNKESPMFAPVY [V19M],2.24
7,YHIYVALEEEIERNKESPRFAPVY [V19R],3.44
8,YHIYVALEEEIERNKESPCFAPVY [V19C],1.81
9,YHIYVALEEEIERNKESSVFAPVY [P18S],2.13
10,YHIYVALEEEIERNKESKVFAPVY [P18K],2.03
11,YHIYVALEEEIERNKESMVFAPVY [P18M],1.75
12,YHIYVALEEEIERNKESLVFAPVY [P18L],1.53
13,YHIYVALEEEIERNKESWVFAPVY [P18W],2.31
14,YHIYVALEEEIERNKESFVFAPVY [P18F],1.79
15,YHIYVALEEEIERNKESRVFAPVY [P18R],1.98
16,YHIYVALEEEIERNKESIVFAPVY [P18I],1.49
17,YHIYVALEEEIERNKESQVFAPVY [P18Q],1.61
18,YHIYVALEEEIERNKESTVFAPVY [P18T],2.06
19,YHIYVALEEEIERNKESCVFAPVY [P18C],1.85
20,YHIYVALEEEIERNKESGVFAPVY [P18G],2.46
21,YHIYVALEEEIERNKESVVFAPVY [P18V],1.59
22,YHIYVALEEEIERNKESDVFAPVY [P18D],2.3
23,YHIYVALEEEIERNKESEVFAPVY [P18E],2.59
24,YHIYVALEEEIERNKESHVFAPVY [P18H],2.23

row,Variant,protein stability index
1,YHIYVALEEEIERNKESNVFAPVY [P18N],2.36
2,YHIYVALEEEIERNKESYVFAPVY [P18Y],1.89
3,YHIYVALEEEIERNKESAVFAPVY [P18A],2.14
4,YHIYVALEEEIERNKKSPVFAPVY [E16K],2.13
5,YHIYVALEEEIERNKSSPVFAPVY [E16S],2.04
6,YHIYVALEEEIERNKPSPVFAPVY [E16P],2.23
7,YHIYVALEEEIERNKCSPVFAPVY [E16C],1.57
8,YHIYVALEEEIERNKFSPVFAPVY [E16F],2.84
9,YHIYVALEEEIERNKMSPVFAPVY [E16M],1.8
10,YHIYVALEEEIERNKNSPVFAPVY [E16N],2.25
11,YHIYVALEEEIERNKASPVFAPVY [E16A],2.67
12,YHIYVALEEEIERNKDSPVFAPVY [E16D],1.59
13,YHIYVALEEEIERNKHSPVFAPVY [E16H],2.08
14,YHIYVALEEEIERNKTSPVFAPVY [E16T],2.12
15,YHIYVALEEEIERNKVSPVFAPVY [E16V],2.14
16,YHIYVALEEEIERNKYSPVFAPVY [E16Y],1.88
17,YHIYVALEEEIERNKISPVFAPVY [E16I],1.42
18,YHIYVALEEEIERNKRSPVFAPVY [E16R],1.8
19,YHIYVALEEEIERNKLSPVFAPVY [E16L],2.32
20,YHIYVALEEEIERNKWSPVFAPVY [E16W],2.14
21,YHIYVALEEEIERNKGSPVFAPVY [E16G],2.04
22,YHIYVALEEEIERNKQSPVFAPVY [E16Q],2.11

# Reference: the supplement of paper PMC10567573
